This data set has as its system Escherichia coli TOP10. As to the kind of experiment: shrunken log2 fold change of peptide-encoding DNA abundance (4.5 h post-induction vs induction); higher = less antimicrobial activity (less host growth inhibition). As to conditions: time post-induction: 4.5 h; library: site-saturation at positions 5, 18, 19, 20.
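Note: peptides expressed intracellularly from a pBAD plasmid library in pooled LB shake-flask culture, induced with 0.3% L-arabinose, DNA abundance read by NGS, three biological replicates, DESeq2 with apeglm shrinkage.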

Take RRIRWRPPRLPRPRPRPRAEPRP: the “shrunken log2 fold change” value is 0.621.

On to RRIRDRPPRLPRPRPRPFLEPRP, for which the “shrunken log2 fold change” value was -0.192.

On to RRIRSRPPRLPRPRPRPEIPPRP, for which the “shrunken log2 fold change” value is 2.86.

RRIRGRPPRLPRPRPRPPTGPRP: the “shrunken log2 fold change” value stood at 0.741.

As for RRIRSRPPRLPRPRPRPPNIPRP, the “shrunken log2 fold change” value is -0.251.

As for RRIRIRPPRLPRPRPRPPFVPRP, the “shrunken log2 fold change” value was found to be 0.104.

As to RRIRIRPPRLPRPRPRPWIPPRP, the “shrunken log2 fold change” value is -0.562.

As for RRIRQRPPRLPRPRPRPKEKPRP, the “shrunken log2 fold change” value came to 0.00902.

Take RRIRYRPPRLPRPRPRPWFKPRP: the “shrunken log2 fold change” value is -0.12.

RRIRDRPPRLPRPRPRPHSYPRP: the “shrunken log2 fold change” value is -0.0739.

RRIRHRPPRLPRPRPRPWPRPRP: the “shrunken log2 fold change” value is 0.166.

RRIRMRPPRLPRPRPRPRRKPRP: the “shrunken log2 fold change” value is 0.416.

On to RRIRSRPPRLPRPRPRPNPSPRP, for which the “shrunken log2 fold change” value is -0.00593.

RRIRGRPPRLPRPRPRPNTMPRP: the “shrunken log2 fold change” value turned out to be 0.0452.

Take RRIRARPPRLPRPRPRPWLQPRP: the “shrunken log2 fold change” value is -0.0599.

Turning to RRIRTRPPRLPRPRPRPRVTPRP, the “shrunken log2 fold change” value was -0.163.

With RRIRERPPRLPRPRPRPPMIPRP, the “shrunken log2 fold change” value is -0.0526.

As to RRIRIRPPRLPRPRPRPKDFPRP, the “shrunken log2 fold change” value is -0.457.

For RRIRARPPRLPRPRPRPGLQPRP, the “shrunken log2 fold change” value worked out at 0.577.

In the case of RRIRKRPPRLPRPRPRPYDAPRP, the “shrunken log2 fold change” value was -0.252.

Consider RRIRMRPPRLPRPRPRPWNFPRP, for which the “shrunken log2 fold change” value was -0.0756.

In the case of RRIRGRPPRLPRPRPRPFNYPRP, the “shrunken log2 fold change” value was -0.419.

As to RRIRNRPPRLPRPRPRPSPHPRP, the “shrunken log2 fold change” value was -0.171.

For the sequence RRIRNRPPRLPRPRPRPIADPRP, the “shrunken log2 fold change” value amounted to 0.0461.

RRIRARPPRLPRPRPRPFSEPRP: the “shrunken log2 fold change” value was -0.122.

On to RRIRFRPPRLPRPRPRPRMIPRP, for which the “shrunken log2 fold change” value is -0.517.

For RRIRSRPPRLPRPRPRPRKPPRP, the “shrunken log2 fold change” value was 0.0197.

For RRIRTRPPRLPRPRPRPHALPRP, the “shrunken log2 fold change” value was found to be 0.0575.

Regarding RRIRERPPRLPRPRPRPLMPPRP, the “shrunken log2 fold change” value is -0.119.

Regarding RRIRNRPPRLPRPRPRPPWHPRP, the “shrunken log2 fold change” value turned out to be 0.129.

Regarding RRIRQRPPRLPRPRPRPNKSPRP, the “shrunken log2 fold change” value was -0.202.

Consider RRIRWRPPRLPRPRPRPEARPRP, for which the “shrunken log2 fold change” value came to 0.106.

Turning to RRIRARPPRLPRPRPRPAACPRP, the “shrunken log2 fold change” value turned out to be 0.754.

Turning to RRIRTRPPRLPRPRPRPEGPPRP, the “shrunken log2 fold change” value was found to be 0.285.

Turning to RRIRIRPPRLPRPRPRPDVCPRP, the “shrunken log2 fold change” value is -0.225.

On to RRIRDRPPRLPRPRPRPMYLPRP, for which the “shrunken log2 fold change” value was -0.239.

Consider RRIRHRPPRLPRPRPRPMFAPRP, for which the “shrunken log2 fold change” value was -0.245.

In the case of RRIRWRPPRLPRPRPRPPGHPRP, the “shrunken log2 fold change” value worked out at 0.403.

On to RRIRCRPPRLPRPRPRPGWGPRP, for which the “shrunken log2 fold change” value came to 0.42.

As for RRIRFRPPRLPRPRPRPIHQPRP, the “shrunken log2 fold change” value was -0.237.

Regarding RRIRIRPPRLPRPRPRPDMAPRP, the “shrunken log2 fold change” value is -0.0603.

In the case of RRIRWRPPRLPRPRPRPGNRPRP, the “shrunken log2 fold change” value was -0.00977.

Turning to RRIRPRPPRLPRPRPRPRLCPRP, the “shrunken log2 fold change” value turned out to be 0.646.

On to RRIRSRPPRLPRPRPRPNAKPRP, for which the “shrunken log2 fold change” value was 0.00752.

RRIRQRPPRLPRPRPRPKFYPRP: the “shrunken log2 fold change” value was -0.206.

In the case of RRIRSRPPRLPRPRPRPREYPRP, the “shrunken log2 fold change” value was -0.0557.

For RRIRERPPRLPRPRPRPVVRPRP, the “shrunken log2 fold change” value was determined as 0.0531.

With RRIRARPPRLPRPRPRPTGKPRP, the “shrunken log2 fold change” value came out at 0.215.

Consider RRIRKRPPRLPRPRPRPKSVPRP, for which the “shrunken log2 fold change” value stood at 0.451.

Take RRIRTRPPRLPRPRPRPAYCPRP: the “shrunken log2 fold change” value is -0.0119.

Regarding RRIRLRPPRLPRPRPRPYWCPRP, the “shrunken log2 fold change” value is -0.00992.

Consider RRIRRRPPRLPRPRPRPGETPRP, for which the “shrunken log2 fold change” value amounted to 0.309.

As to RRIRIRPPRLPRPRPRPVEWPRP, the “shrunken log2 fold change” value amounted to 0.0101.

For the sequence RRIRMRPPRLPRPRPRPWCYPRP, the “shrunken log2 fold change” value is -0.162.

Regarding RRIRGRPPRLPRPRPRPPIPPRP, the “shrunken log2 fold change” value is 0.449.

As to RRIRWRPPRLPRPRPRPGHLPRP, the “shrunken log2 fold change” value is 0.0651.

RRIRLRPPRLPRPRPRPPVEPRP: the “shrunken log2 fold change” value is 0.638.

Turning to RRIRFRPPRLPRPRPRPSKCPRP, the “shrunken log2 fold change” value was -0.26.

RRIRRRPPRLPRPRPRPIRPPRP: the “shrunken log2 fold change” value turned out to be 0.198.

As for RRIRHRPPRLPRPRPRPCTVPRP, the “shrunken log2 fold change” value was -0.0523.

Regarding RRIRERPPRLPRPRPRPGAEPRP, the “shrunken log2 fold change” value is 0.372.

Take RRIRVRPPRLPRPRPRPKQMPRP: the “shrunken log2 fold change” value is 0.114.

Turning to RRIRLRPPRLPRPRPRPEFAPRP, the “shrunken log2 fold change” value was determined as 0.342.

RRIRVRPPRLPRPRPRPQTHPRP: the “shrunken log2 fold change” value was found to be 0.01.

Take RRIRWRPPRLPRPRPRPFWWPRP: the “shrunken log2 fold change” value amounted to 0.402.

Regarding RRIRIRPPRLPRPRPRPGSGPRP, the “shrunken log2 fold change” value turned out to be 0.166.

Consider RRIRERPPRLPRPRPRPCQDPRP, for which the “shrunken log2 fold change” value is -0.534.

For the sequence RRIRFRPPRLPRPRPRPEDFPRP, the “shrunken log2 fold change” value was 0.0568.

Turning to RRIRERPPRLPRPRPRPMEIPRP, the “shrunken log2 fold change” value was -0.221.

In the case of RRIRWRPPRLPRPRPRPEQRPRP, the “shrunken log2 fold change” value was found to be 0.248.

Turning to RRIRDRPPRLPRPRPRPHFVPRP, the “shrunken log2 fold change” value was -0.193.

On to RRIRDRPPRLPRPRPRPADAPRP, for which the “shrunken log2 fold change” value amounted to 0.196.

Take RRIRKRPPRLPRPRPRPRSQPRP: the “shrunken log2 fold change” value turned out to be 0.051.

On to RRIRIRPPRLPRPRPRPVVTPRP, for which the “shrunken log2 fold change” value was -0.408.

As to RRIRKRPPRLPRPRPRPPTLPRP, the “shrunken log2 fold change” value is 1.53.

Regarding RRIRVRPPRLPRPRPRPATPPRP, the “shrunken log2 fold change” value worked out at 0.35.

As for RRIRMRPPRLPRPRPRPGRMPRP, the “shrunken log2 fold change” value stood at 0.993.

As for RRIRGRPPRLPRPRPRPMNDPRP, the “shrunken log2 fold change” value was 0.337.

Turning to RRIRYRPPRLPRPRPRPNRSPRP, the “shrunken log2 fold change” value is -0.496.

Regarding RRIRVRPPRLPRPRPRPFTRPRP, the “shrunken log2 fold change” value was 0.114.

Turning to RRIRNRPPRLPRPRPRPDATPRP, the “shrunken log2 fold change” value turned out to be 0.0488.

In the case of RRIRHRPPRLPRPRPRPHKCPRP, the “shrunken log2 fold change” value is -0.11.

As to RRIRYRPPRLPRPRPRPFHWPRP, the “shrunken log2 fold change” value was determined as 0.0011.

Consider RRIRPRPPRLPRPRPRPSGDPRP, for which the “shrunken log2 fold change” value came to 0.14.

Turning to RRIRARPPRLPRPRPRPCPHPRP, the “shrunken log2 fold change” value was -0.329.

Take RRIRKRPPRLPRPRPRPDTLPRP: the “shrunken log2 fold change” value is 0.0227.

Take RRIRLRPPRLPRPRPRPDMHPRP: the “shrunken log2 fold change” value was determined as 3.46.

As for RRIRNRPPRLPRPRPRPKAPPRP, the “shrunken log2 fold change” value is -0.0518.

For the sequence RRIRIRPPRLPRPRPRPIHIPRP, the “shrunken log2 fold change” value is -0.149.

Consider RRIRARPPRLPRPRPRPKVKPRP, for which the “shrunken log2 fold change” value is 0.171.

Turning to RRIRDRPPRLPRPRPRPPCDPRP, the “shrunken log2 fold change” value is -0.0123.

As to RRIRWRPPRLPRPRPRPNMKPRP, the “shrunken log2 fold change” value is -0.0784.

Regarding RRIRARPPRLPRPRPRPKPQPRP, the “shrunken log2 fold change” value was determined as 0.533.

In the case of RRIRERPPRLPRPRPRPYESPRP, the “shrunken log2 fold change” value was -0.0018.

In the case of RRIRARPPRLPRPRPRPKYRPRP, the “shrunken log2 fold change” value was -0.118.

In the case of RRIRVRPPRLPRPRPRPWSLPRP, the “shrunken log2 fold change” value is -0.0384.

Consider RRIRTRPPRLPRPRPRPHFLPRP, for which the “shrunken log2 fold change” value was -0.218.

As for RRIRHRPPRLPRPRPRPCGKPRP, the “shrunken log2 fold change” value was -0.00804.

RRIRCRPPRLPRPRPRPCKEPRP: the “shrunken log2 fold change” value is -0.35.

As for RRIRYRPPRLPRPRPRPQCAPRP, the “shrunken log2 fold change” value was -0.247.

Take RRIRCRPPRLPRPRPRPLACPRP: the “shrunken log2 fold change” value is -0.236.

In the case of RRIRHRPPRLPRPRPRPRGFPRP, the “shrunken log2 fold change” value was 0.0657.

Take RRIRWRPPRLPRPRPRPYSYPRP: the “shrunken log2 fold change” value was -0.00188.

As for RRIRVRPPRLPRPRPRPMTLPRP, the “shrunken log2 fold change” value is -0.0218.

Turning to RRIRYRPPRLPRPRPRPINQPRP, the “shrunken log2 fold change” value is -0.113.

For the sequence RRIRNRPPRLPRPRPRPTQEPRP, the “shrunken log2 fold change” value was found to be 0.786.

RRIRARPPRLPRPRPRPNRWPRP: the “shrunken log2 fold change” value was 0.331.

For the sequence RRIRPRPPRLPRPRPRPNQTPRP, the “shrunken log2 fold change” value is 0.106.

Consider RRIRGRPPRLPRPRPRPATKPRP, for which the “shrunken log2 fold change” value came to 0.649.

Regarding RRIRRRPPRLPRPRPRPVHEPRP, the “shrunken log2 fold change” value came to 0.381.

Consider RRIRWRPPRLPRPRPRPKNYPRP, for which the “shrunken log2 fold change” value was -0.152.

For the sequence RRIRARPPRLPRPRPRPHGHPRP, the “shrunken log2 fold change” value stood at 0.125.

For the sequence RRIRRRPPRLPRPRPRPSLDPRP, the “shrunken log2 fold change” value was 0.34.

With RRIRLRPPRLPRPRPRPPRGPRP, the “shrunken log2 fold change” value was found to be 0.637.

With RRIRIRPPRLPRPRPRPFQLPRP, the “shrunken log2 fold change” value came to 0.0333.

Turning to RRIRYRPPRLPRPRPRPNMSPRP, the “shrunken log2 fold change” value was -0.675.

RRIRNRPPRLPRPRPRPNHTPRP: the “shrunken log2 fold change” value is -0.773.

Regarding RRIRCRPPRLPRPRPRPQATPRP, the “shrunken log2 fold change” value worked out at 0.122.

RRIRVRPPRLPRPRPRPTCSPRP: the “shrunken log2 fold change” value is 0.19.

Turning to RRIRMRPPRLPRPRPRPRNCPRP, the “shrunken log2 fold change” value came to 0.0629.

RRIRGRPPRLPRPRPRPFCEPRP: the “shrunken log2 fold change” value came to 0.403.

As to RRIRPRPPRLPRPRPRPFTMPRP, the “shrunken log2 fold change” value was determined as 1.43.

Turning to RRIRIRPPRLPRPRPRPNGPPRP, the “shrunken log2 fold change” value is 0.00676.

As to RRIRKRPPRLPRPRPRPEIKPRP, the “shrunken log2 fold change” value is 0.977.

For the sequence RRIRARPPRLPRPRPRPRGDPRP, the “shrunken log2 fold change” value is 3.26.

These data come from the supplement of paper PMC9112550, “Optimization of the antimicrobial peptide Bac7 by deep mutational scanning” (BMC Biology, 2022).
